Tests used:
[1] = biological target: T1, Nicotinic acetylcholine Receptor alpha-4 beta-2 (nAChR(a4/b2)) (Homo sapiens, UniProt P17787+P43681); experiment: cell-based; settings: Blocker; Ion channel; read-out: RC50 (the source's name)
T1 construct: host or cells: unnamed DiscoverX cell line

[2] = biological target: Gamma-aminobutyric acid Receptor A (GABAA) (Homo sapiens, UniProt P14867+P18507+P47870); experiment: SAFETYscan Ion channel assay; assay type: cell-based; settings: Blocker, read-out: RC50 (the source's name)
[3] = system: PC12 dopaminergic cell cultures; experiment: PC12 neurotropic (neurite outgrowth) assay; assay type: cell-based, rat; settings: for neurite outgrowth, Df value: NGF alone 50 ng/mL
[4] = system: dorsal root ganglion (DRG) sensory neurons; experiment: DRG neurite outgrowth assay; assay type: cell-based, mice; settings: NGF 50 ng/mL, DRG explants, 5 days
Source text: In the second step, we study the effect of HU-MCA-13 on ex-vivo sensory neuronal cultures obtained from dissociated dorsal root ganglia (DRG), a model in which the neurons tend to extend neurites in culture at a high rate, and all neurite outgrowths are axons, as confirmed by immune staining for cytoskeletal-specific proteins.[27] […] By contrast, NGF induced a strong, 3.5-fold increase in neurite outgrowth to a value of 700 μm (Figure 1 and Figure 3B) and a ratio of 8.5 between the area covered by neurites and that covered by the DRG ganglia (Figure 3C). Similarly, HU-MCA-13 induced a 2.5 fold increase in neurite outgrowth to a value of about 500 μm (Figure 1 and Figure 3B) and a ratio of 5.4 between the area covered by neurites and that covered by the DRG ganglia (Figure 3C). […] These experiments extend the neurotropic effect of MCA-13 observed with PC12 dopaminergic neuronal cultures to DRG sensory neurons.
To perform these experiments, 10 DRGs were excised under sterile conditions and transferred to Dulbecco’s Modified Eagle Medium (DMEM) containing 0.25% Type IV collagenase in at 37 °C for 45 min, followed by a 20 min incubation with 0.025% trypsin in DMEM, to digest the associated connective tissue surrounding the neurons. After plating the ganglia onto collagen (50 μg/mL)/laminin mixture (5 μg/mL)-coated tissue culture wells for 24 h, DRG neurons were cultured for additional 1–7 days in fresh Neurobasal A/B27 medium[27] containing either 50 ng/mL NGF (positive control), medium containing 1% DMSO (negative control) or 5 μM MCA-13. The living cultures were photographed and thereafter, the ganglia were immunostained for β tubulin III and again photographed using a fluorescent microscope. A researcher blinded to the experimental conditions performed image analysis, and the neurite outgrowth length (in micrometers) was measured.[50]

[5] = system: PGE2 production in PC12 cells; experiment: PGE2 production measured by ELISA; settings: 50 ng/mL NGF; 24 h
[6] = system: adult rat spinal cord primary cultures; experiment: Spinal cord neurons neurite outgrowth assay; assay type: cell-based; settings: NGF 50 ng/mL
Experimental: To study the effect of HU-MCA-13 on adult rat spinal cord primary cultures in vitro, we developed a purification procedure that yields enriched different types of spinal cord neuronal cultures. This neurotropic assay was performed using vehicle 1% DMSO in DMEM as control and 10 μM HU-MCA-13. The results in Figure 1 bottom row and Figure 3D clearly indicate that in control there was very poor spontaneous neurite outgrowth of a total length of about 180 μm and NGF induced neurite outgrowth to a total length of about 800 μm. Similarly, HU-MCA-13 induced a neurite outgrowth of 600 μm. Figure 2B indicates cytoskeletal-tubulin protein expression in the cultured neurons. These findings further extend the neurotropic effect of HU-MCA-13 to spinal cord neurons, in addition to DRGs and PC12 cells.
Spinal cords were isolated from adult rats (4–6 months old), and the meninges were removed from the spinal cord. The spinal cord was then cut into small pieces and collected in cold Hibernate A (Brainbits, Springfield, IL, USA), glutamine (0.5 mM), and B27 (Invitrogen, Carlsbad, CA). […] Neurite outgrowth was measured and presented as mean length of a neurite (microns). To measure neuronal survival, 450 cells were counted in 10 randomly chosen microscope fields of a known area in each of the three dishes per condition using a 20× objective and phase-contrast optics. […]

T1 sequence (P43681 29-627 limits assumed): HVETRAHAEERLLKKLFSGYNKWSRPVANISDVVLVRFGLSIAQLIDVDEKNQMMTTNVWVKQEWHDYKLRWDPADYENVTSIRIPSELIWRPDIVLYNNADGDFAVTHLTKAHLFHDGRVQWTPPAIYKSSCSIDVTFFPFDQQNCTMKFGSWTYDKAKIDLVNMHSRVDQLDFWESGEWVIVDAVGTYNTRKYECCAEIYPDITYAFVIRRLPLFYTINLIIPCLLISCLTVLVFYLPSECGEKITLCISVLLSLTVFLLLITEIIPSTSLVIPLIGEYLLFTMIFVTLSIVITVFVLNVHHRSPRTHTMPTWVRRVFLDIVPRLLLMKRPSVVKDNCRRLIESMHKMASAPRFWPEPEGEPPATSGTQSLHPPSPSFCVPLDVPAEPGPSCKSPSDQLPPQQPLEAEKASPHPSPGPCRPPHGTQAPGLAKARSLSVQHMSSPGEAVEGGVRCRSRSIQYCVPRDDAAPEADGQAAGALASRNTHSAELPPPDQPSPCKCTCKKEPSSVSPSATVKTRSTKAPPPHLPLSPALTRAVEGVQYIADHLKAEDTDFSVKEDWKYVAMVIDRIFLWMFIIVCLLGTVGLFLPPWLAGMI
T1 sequence (P17787 26-502): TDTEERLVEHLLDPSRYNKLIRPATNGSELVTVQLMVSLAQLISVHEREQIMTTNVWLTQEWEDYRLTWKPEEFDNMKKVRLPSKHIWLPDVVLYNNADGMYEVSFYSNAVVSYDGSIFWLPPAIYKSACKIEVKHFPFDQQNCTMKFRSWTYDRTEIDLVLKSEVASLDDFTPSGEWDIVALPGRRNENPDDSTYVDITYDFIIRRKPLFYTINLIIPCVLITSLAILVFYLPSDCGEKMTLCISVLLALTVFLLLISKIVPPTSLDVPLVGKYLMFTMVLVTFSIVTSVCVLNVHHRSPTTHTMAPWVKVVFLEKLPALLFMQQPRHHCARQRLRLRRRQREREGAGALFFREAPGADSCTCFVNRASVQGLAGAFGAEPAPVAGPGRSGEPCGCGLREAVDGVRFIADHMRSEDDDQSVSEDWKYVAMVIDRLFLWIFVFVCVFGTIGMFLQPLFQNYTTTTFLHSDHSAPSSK
Chain of Gamma-aminobutyric acid Receptor A (GABAA) (P14867 28-456): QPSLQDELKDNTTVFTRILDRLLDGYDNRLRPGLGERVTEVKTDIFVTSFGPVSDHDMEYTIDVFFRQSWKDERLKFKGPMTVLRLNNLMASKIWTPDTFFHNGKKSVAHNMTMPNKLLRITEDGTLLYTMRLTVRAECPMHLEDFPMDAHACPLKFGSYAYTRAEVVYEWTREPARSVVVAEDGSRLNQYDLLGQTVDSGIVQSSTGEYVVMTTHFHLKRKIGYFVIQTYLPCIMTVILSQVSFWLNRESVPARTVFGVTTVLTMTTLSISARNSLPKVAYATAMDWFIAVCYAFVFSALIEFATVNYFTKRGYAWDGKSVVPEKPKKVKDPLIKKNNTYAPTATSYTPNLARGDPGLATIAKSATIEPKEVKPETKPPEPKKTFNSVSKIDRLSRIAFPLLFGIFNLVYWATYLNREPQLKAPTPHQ
Chain of Gamma-aminobutyric acid Receptor A (GABAA) (P47870 26-512): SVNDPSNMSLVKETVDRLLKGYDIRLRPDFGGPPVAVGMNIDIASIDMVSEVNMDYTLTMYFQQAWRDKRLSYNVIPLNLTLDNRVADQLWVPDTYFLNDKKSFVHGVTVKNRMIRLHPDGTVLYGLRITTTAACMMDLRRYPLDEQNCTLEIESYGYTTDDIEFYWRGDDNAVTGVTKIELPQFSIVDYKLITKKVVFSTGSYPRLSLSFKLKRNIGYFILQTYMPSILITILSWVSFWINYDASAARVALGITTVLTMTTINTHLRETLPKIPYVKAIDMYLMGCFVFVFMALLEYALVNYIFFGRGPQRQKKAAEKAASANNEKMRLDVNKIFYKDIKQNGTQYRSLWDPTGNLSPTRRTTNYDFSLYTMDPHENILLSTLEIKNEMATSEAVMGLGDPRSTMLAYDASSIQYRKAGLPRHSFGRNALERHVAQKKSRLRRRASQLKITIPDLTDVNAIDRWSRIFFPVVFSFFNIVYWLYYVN
Chain of Gamma-aminobutyric acid Receptor A (GABAA) (P18507 40-475): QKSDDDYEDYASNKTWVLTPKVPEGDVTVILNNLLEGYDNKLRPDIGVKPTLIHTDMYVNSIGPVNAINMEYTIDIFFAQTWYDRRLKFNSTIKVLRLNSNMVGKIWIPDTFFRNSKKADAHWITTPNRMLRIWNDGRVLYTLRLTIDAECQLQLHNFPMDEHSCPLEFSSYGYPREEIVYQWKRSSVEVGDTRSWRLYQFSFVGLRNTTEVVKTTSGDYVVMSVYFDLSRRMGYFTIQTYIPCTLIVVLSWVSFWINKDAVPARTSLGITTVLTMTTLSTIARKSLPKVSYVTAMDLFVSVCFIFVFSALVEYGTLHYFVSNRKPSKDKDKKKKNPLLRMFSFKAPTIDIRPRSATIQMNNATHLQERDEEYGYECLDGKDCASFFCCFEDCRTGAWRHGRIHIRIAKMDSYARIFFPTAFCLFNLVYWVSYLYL

Dihydro-AY-erythroidine [reference compound]
IC50 [1]: 0.707 µM

Picrotoxin
IC50 [2]: 5.92 µM

B1: NGF: Tissue culture grade mouse β-nerve growth factor, neurotrophin used as positive control (protein, UniProt P01139 122-241, looked up)
Beta-nerve growth factor: SSTHPVFHMGEFSVCDSVSVWVGDKTTATDIKGKEVTVLAEVNINNSVFRQYFFETKCRASNPVESGCRGIDSKHWNSYCTTTHTFVKALTTDEKQAAWRFIRIDTACVCVLSRKATRRG
modifications: Beta-nerve growth factor
notes: Tissue culture grade mouse β-nerve growth factor, neurotrophin used as positive control
neurotropic effect in the presence of Trk A inhibitor K252a ([3]; 250 nM K252a, 10 μM HU-MCA-13): abolished
neurite outgrowth, Df value ([3]; 2 days): 0.54
neurite outgrowth, Df value ([3]; 7 days): 0.4
neurite outgrowth ([3]; low dose of NGF 1 ng/mL): 10%
neurite outgrowth, Df ([3]; low dose of NGF 1 ng/mL): 0.05
neurite outgrowth length [4]: 700 μm
ratio between the area covered by neurites and that covered by the DRG ganglia [4]: 8.5
fold increase in neurite outgrowth ([4]; versus control medium): 3.5 fold
production of PGE2 [5]: significantly increased
neurite outgrowth total length [6]: about 800 μm

Source: publication PMC7497641, “Neurotropic activity and safety of methylene-cycloalkylacetate (MCA) derivative 3-(3-allyl-2-methylenecyclohexyl) propanoic acid” (ACS Chemical Neuroscience, 2020)
